From patent US20140087995A1 (published 2014)
Numbered stars: 1 amine (or outer) side, 2 acyl side, 3 side chain; on linkers, the order of the positions; unused ones are H or OH. Bridge positions count the residues as written; N and C are the ends. Side chains are listed from the residue outwards. Ends that are not written are not given here. * marks the point of attachment. C20 diacid = O=C(O)CCCCCCCCCCCCCCCCCCC(=O)*; γGlu = O=C(O)[C@H](CCC(=O)[*:2])N[*:1]

T1: human amylin receptor (human, UniProt P30988 25-474; O60896 24-148, limits assumed)
T1 construct: whole, on cells; Calcitonin receptor plus RAMP-3 gives the amylin 3(a) receptor; membranes of Amylin 3(a)/CRE-luc cells were used; also called hAmylin-R; hAmylinR
T1 sequence (looked up) 1: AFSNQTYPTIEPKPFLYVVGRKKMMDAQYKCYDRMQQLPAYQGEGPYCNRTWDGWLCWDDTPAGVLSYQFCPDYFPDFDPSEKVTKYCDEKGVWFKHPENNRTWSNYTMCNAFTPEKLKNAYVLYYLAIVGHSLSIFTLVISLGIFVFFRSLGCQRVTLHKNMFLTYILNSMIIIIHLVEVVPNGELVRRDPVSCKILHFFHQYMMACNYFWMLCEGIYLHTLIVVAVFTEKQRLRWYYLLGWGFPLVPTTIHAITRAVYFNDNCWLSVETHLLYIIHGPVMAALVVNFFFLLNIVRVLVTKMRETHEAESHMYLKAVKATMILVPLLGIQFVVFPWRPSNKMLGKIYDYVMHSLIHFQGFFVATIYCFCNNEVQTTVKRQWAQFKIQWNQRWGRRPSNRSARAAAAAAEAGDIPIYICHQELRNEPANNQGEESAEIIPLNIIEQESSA
T1 sequence (looked up) 2: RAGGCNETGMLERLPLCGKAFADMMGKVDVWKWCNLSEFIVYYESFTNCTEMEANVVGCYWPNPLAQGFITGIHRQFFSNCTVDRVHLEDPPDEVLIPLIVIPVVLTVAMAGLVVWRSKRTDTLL


target: T1, human amylin receptor; assay: SPA competition binding, displacement of 125I-rat amylin from membranes with human amylin 3(a) receptor (Assay V)
How it was run: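 Cell membranes were prepared by homogenisation in Na-HEPES/EDTA buffer, pH 7.4, and stored at −80° C. They were then coupled to SPA beads at 35 ng/μL final and exposed to compounds in assay buffer containing CaCl2, MgCl₂, OA and Tween20. After 120 min at 25° C, plates were counted and IC₅₀ derived.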

Row | Binder | IC50 [nM]
1 | K([γGlu-C20 diacid])CNTATCATQRLANFLRHSSPNFGAIPSSTNVGHNTY-NH2 (disulfide 2-7; N-terminus assumed; SMILES CC[C@H](C)[C@H](NC(=O)[C@H](C)NC(=O)CNC(=O)[C@H](Cc1ccccc1)NC(=O)[C@H](CC(N)=O)NC(=O)[C@@H]1CCCN1C(=O)[C@H](CO)NC(=O)[C@H](CO)NC(=O)[C@H](Cc1c[nH]cn1)NC(=O)[C@H](CCCNC(=N)N)NC(=O)[C@H](CC(C)C)NC(=O)[C@H](Cc1ccccc1)NC(=O)[C@H](CC(N)=O)NC(=O)[C@H](C)NC(=O)[C@H](CC(C)C)NC(=O)[C@H](CCCNC(=N)N)NC(=O)[C@H](CCC(N)=O)NC(=O)[C@@H](NC(=O)[C@H](C)NC(=O)[C@@H]1CSSC[C@H](NC(=O)[C@@H](N)CCCCNC(=O)CC[C@H](NC(=O)CCCCCCCCCCCCCCCCCCC(=O)O)C(=O)O)C(=O)N[C@@H](CC(N)=O)C(=O)N[C@@H]([C@@H](C)O)C(=O)N[C@@H](C)C(=O)N[C@@H]([C@@H](C)O)C(=O)N1)[C@@H](C)O)C(=O)N1CCC[C@H]1C(=O)N[C@@H](CO)C(=O)N[C@@H](CO)C(=O)N[C@H](C(=O)N[C@@H](CC(N)=O)C(=O)N[C@H](C(=O)NCC(=O)N[C@@H](Cc1c[nH]cn1)C(=O)N[C@@H](CC(N)=O)C(=O)N[C@H](C(=O)N[C@@H](Cc1ccc(O)cc1)C(N)=O)[C@@H](C)O)C(C)C)[C@@H](C)O, also called 17R, 21P, 27P, 34H) [N^ε1-[(4S)-4-carboxy-4-(19-carboxynonadecanoylamino)butanoyl]-[Arg17,Pro21,Pro27,His34]-h-amylin] | 0.428
2 | K([γGlu-C20 diacid])CNTATCATQRLADFLRHSSPNFGAIPSSTNVGPETY-NH2 (disulfide 2-7; N-terminus assumed; SMILES CC[C@H](C)[C@H](NC(=O)[C@H](C)NC(=O)CNC(=O)[C@H](Cc1ccccc1)NC(=O)[C@H](CC(N)=O)NC(=O)[C@@H]1CCCN1C(=O)[C@H](CO)NC(=O)[C@H](CO)NC(=O)[C@H](Cc1c[nH]cn1)NC(=O)[C@H](CCCNC(=N)N)NC(=O)[C@H](CC(C)C)NC(=O)[C@H](Cc1ccccc1)NC(=O)[C@H](CC(=O)O)NC(=O)[C@H](C)NC(=O)[C@H](CC(C)C)NC(=O)[C@H](CCCNC(=N)N)NC(=O)[C@H](CCC(N)=O)NC(=O)[C@@H](NC(=O)[C@H](C)NC(=O)[C@@H]1CSSC[C@H](NC(=O)[C@@H](N)CCCCNC(=O)CC[C@H](NC(=O)CCCCCCCCCCCCCCCCCCC(=O)O)C(=O)O)C(=O)N[C@@H](CC(N)=O)C(=O)N[C@@H]([C@@H](C)O)C(=O)N[C@@H](C)C(=O)N[C@@H]([C@@H](C)O)C(=O)N1)[C@@H](C)O)C(=O)N1CCC[C@H]1C(=O)N[C@@H](CO)C(=O)N[C@@H](CO)C(=O)N[C@H](C(=O)N[C@@H](CC(N)=O)C(=O)N[C@H](C(=O)NCC(=O)N1CCC[C@H]1C(=O)N[C@@H](CCC(=O)O)C(=O)N[C@H](C(=O)N[C@@H](Cc1ccc(O)cc1)C(N)=O)[C@@H](C)O)C(C)C)[C@@H](C)O, also called 14D, 17R, 21P, 27P, 34P, 35E) | 0.196
3 | K([γGlu-C20 diacid])CNTATCATQRLANFLRHSSPNFGAIPSSTNVGSHTY-NH2 (disulfide 2-7; N-terminus assumed; SMILES CC[C@H](C)[C@H](NC(=O)[C@H](C)NC(=O)CNC(=O)[C@H](Cc1ccccc1)NC(=O)[C@H](CC(N)=O)NC(=O)[C@@H]1CCCN1C(=O)[C@H](CO)NC(=O)[C@H](CO)NC(=O)[C@H](Cc1c[nH]cn1)NC(=O)[C@H](CCCNC(=N)N)NC(=O)[C@H](CC(C)C)NC(=O)[C@H](Cc1ccccc1)NC(=O)[C@H](CC(N)=O)NC(=O)[C@H](C)NC(=O)[C@H](CC(C)C)NC(=O)[C@H](CCCNC(=N)N)NC(=O)[C@H](CCC(N)=O)NC(=O)[C@@H](NC(=O)[C@H](C)NC(=O)[C@@H]1CSSC[C@H](NC(=O)[C@@H](N)CCCCNC(=O)CC[C@H](NC(=O)CCCCCCCCCCCCCCCCCCC(=O)O)C(=O)O)C(=O)N[C@@H](CC(N)=O)C(=O)N[C@@H]([C@@H](C)O)C(=O)N[C@@H](C)C(=O)N[C@@H]([C@@H](C)O)C(=O)N1)[C@@H](C)O)C(=O)N1CCC[C@H]1C(=O)N[C@@H](CO)C(=O)N[C@@H](CO)C(=O)N[C@H](C(=O)N[C@@H](CC(N)=O)C(=O)N[C@H](C(=O)NCC(=O)N[C@@H](CO)C(=O)N[C@@H](Cc1c[nH]cn1)C(=O)N[C@H](C(=O)N[C@@H](Cc1ccc(O)cc1)C(N)=O)[C@@H](C)O)C(C)C)[C@@H](C)O, also called 17R, 21P, 27P, 35H) [N^ε1-[(4S)-4-carboxy-4-(19-carboxynonadecanoylamino)butanoyl]-[Arg17,Pro21,Pro27,His35]-h-amylin] | 0.695

Second part, the binder after the results:

Row | IC50 [nM] | Binder
4 | 0.232 | K([γGlu-C20 diacid])CNTATCATQRLAEFLRHSSPNFGAIPSSTNVGRETY-NH2 (disulfide 2-7; N-terminus assumed; SMILES CC[C@H](C)[C@H](NC(=O)[C@H](C)NC(=O)CNC(=O)[C@H](Cc1ccccc1)NC(=O)[C@H](CC(N)=O)NC(=O)[C@@H]1CCCN1C(=O)[C@H](CO)NC(=O)[C@H](CO)NC(=O)[C@H](Cc1c[nH]cn1)NC(=O)[C@H](CCCNC(=N)N)NC(=O)[C@H](CC(C)C)NC(=O)[C@H](Cc1ccccc1)NC(=O)[C@H](CCC(=O)O)NC(=O)[C@H](C)NC(=O)[C@H](CC(C)C)NC(=O)[C@H](CCCNC(=N)N)NC(=O)[C@H](CCC(N)=O)NC(=O)[C@@H](NC(=O)[C@H](C)NC(=O)[C@@H]1CSSC[C@H](NC(=O)[C@@H](N)CCCCNC(=O)CC[C@H](NC(=O)CCCCCCCCCCCCCCCCCCC(=O)O)C(=O)O)C(=O)N[C@@H](CC(N)=O)C(=O)N[C@@H]([C@@H](C)O)C(=O)N[C@@H](C)C(=O)N[C@@H]([C@@H](C)O)C(=O)N1)[C@@H](C)O)C(=O)N1CCC[C@H]1C(=O)N[C@@H](CO)C(=O)N[C@@H](CO)C(=O)N[C@H](C(=O)N[C@@H](CC(N)=O)C(=O)N[C@H](C(=O)NCC(=O)N[C@@H](CCCNC(=N)N)C(=O)N[C@@H](CCC(=O)O)C(=O)N[C@H](C(=O)N[C@@H](Cc1ccc(O)cc1)C(N)=O)[C@@H](C)O)C(C)C)[C@@H](C)O, also called 14E, 17R, 21P, 27P, 34R, 35E)
5 | 0.387 | K([γGlu-C20 diacid])CNTATCATQRLAEFLRHSSPNFGAIPSSTNVGHETY-NH2 (disulfide 2-7; N-terminus assumed; SMILES CC[C@H](C)[C@H](NC(=O)[C@H](C)NC(=O)CNC(=O)[C@H](Cc1ccccc1)NC(=O)[C@H](CC(N)=O)NC(=O)[C@@H]1CCCN1C(=O)[C@H](CO)NC(=O)[C@H](CO)NC(=O)[C@H](Cc1c[nH]cn1)NC(=O)[C@H](CCCNC(=N)N)NC(=O)[C@H](CC(C)C)NC(=O)[C@H](Cc1ccccc1)NC(=O)[C@H](CCC(=O)O)NC(=O)[C@H](C)NC(=O)[C@H](CC(C)C)NC(=O)[C@H](CCCNC(=N)N)NC(=O)[C@H](CCC(N)=O)NC(=O)[C@@H](NC(=O)[C@H](C)NC(=O)[C@@H]1CSSC[C@H](NC(=O)[C@@H](N)CCCCNC(=O)CC[C@H](NC(=O)CCCCCCCCCCCCCCCCCCC(=O)O)C(=O)O)C(=O)N[C@@H](CC(N)=O)C(=O)N[C@@H]([C@@H](C)O)C(=O)N[C@@H](C)C(=O)N[C@@H]([C@@H](C)O)C(=O)N1)[C@@H](C)O)C(=O)N1CCC[C@H]1C(=O)N[C@@H](CO)C(=O)N[C@@H](CO)C(=O)N[C@H](C(=O)N[C@@H](CC(N)=O)C(=O)N[C@H](C(=O)NCC(=O)N[C@@H](Cc1c[nH]cn1)C(=O)N[C@@H](CCC(=O)O)C(=O)N[C@H](C(=O)N[C@@H](Cc1ccc(O)cc1)C(N)=O)[C@@H](C)O)C(C)C)[C@@H](C)O, also called 14E, 17R, 21P, 27P, 34H, 35E)
